According to patent publication US20030078381A1 (VANDERBILT UNIVERSITY, published 2003):

T1: IL-22R1/IL-20R2 heterodimeric receptor on co-transfected cells (human, UniProt Q6UXL0 30-311)
T1 construct: whole, on cells; Both subunits were co-transfected into Cos-E5, BHK or Ba/F3 cells; also called IL-24 receptor (IL-22R1/IL-20R2)
T1 sequence 1: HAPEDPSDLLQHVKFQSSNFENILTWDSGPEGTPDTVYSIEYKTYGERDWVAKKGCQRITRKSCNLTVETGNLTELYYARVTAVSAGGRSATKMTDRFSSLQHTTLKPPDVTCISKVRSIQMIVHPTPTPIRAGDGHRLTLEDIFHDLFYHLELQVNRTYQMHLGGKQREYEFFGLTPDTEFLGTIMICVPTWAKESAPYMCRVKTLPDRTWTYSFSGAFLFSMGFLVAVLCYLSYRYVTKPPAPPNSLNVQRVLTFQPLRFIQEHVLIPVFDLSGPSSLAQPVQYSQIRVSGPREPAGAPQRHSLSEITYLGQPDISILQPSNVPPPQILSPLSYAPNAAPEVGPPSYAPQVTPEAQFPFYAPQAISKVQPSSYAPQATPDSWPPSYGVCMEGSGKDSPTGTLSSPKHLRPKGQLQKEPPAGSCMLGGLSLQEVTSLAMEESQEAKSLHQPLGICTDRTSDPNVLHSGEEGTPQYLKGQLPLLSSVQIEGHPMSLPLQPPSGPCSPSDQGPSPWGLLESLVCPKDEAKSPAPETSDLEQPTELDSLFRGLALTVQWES
T1 sequence 2: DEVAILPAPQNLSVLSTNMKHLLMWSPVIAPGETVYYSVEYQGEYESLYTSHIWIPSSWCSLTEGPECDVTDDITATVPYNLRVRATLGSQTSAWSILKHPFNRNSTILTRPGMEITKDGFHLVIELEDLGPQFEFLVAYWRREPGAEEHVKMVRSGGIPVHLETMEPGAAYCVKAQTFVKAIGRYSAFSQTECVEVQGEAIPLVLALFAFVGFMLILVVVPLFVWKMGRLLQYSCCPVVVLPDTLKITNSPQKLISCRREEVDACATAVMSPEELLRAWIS

T2: IL-20 receptor (IL-20R1/IL-20R2) heterodimeric receptor on co-transfected cells (human, UniProt Q6UXL0 30-311)
T2 construct: whole, on cells; Both subunits were co-transfected into Cos-E5, BHK or Ba/F3 cells
T2 sequence 1: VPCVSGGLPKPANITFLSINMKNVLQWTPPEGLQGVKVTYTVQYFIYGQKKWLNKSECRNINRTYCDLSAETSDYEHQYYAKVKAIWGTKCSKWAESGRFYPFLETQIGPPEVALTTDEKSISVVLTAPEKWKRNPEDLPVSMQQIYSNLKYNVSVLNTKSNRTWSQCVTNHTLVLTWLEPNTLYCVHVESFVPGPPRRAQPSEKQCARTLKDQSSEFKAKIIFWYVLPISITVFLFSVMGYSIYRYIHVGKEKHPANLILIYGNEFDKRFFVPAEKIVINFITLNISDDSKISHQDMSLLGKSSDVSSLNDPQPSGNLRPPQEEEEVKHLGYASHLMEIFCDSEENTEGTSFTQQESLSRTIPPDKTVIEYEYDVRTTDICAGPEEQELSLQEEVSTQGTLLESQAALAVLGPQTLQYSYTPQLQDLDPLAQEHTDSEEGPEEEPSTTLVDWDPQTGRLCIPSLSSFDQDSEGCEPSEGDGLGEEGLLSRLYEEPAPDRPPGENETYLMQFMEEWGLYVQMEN
T2 sequence 2: T1 sequence 2

T3: human IL-22R1, expressed alone on transfected cells (human, UniProt Q8N6P7 16-574)
T3 sequence: T1 sequence 1

T4: human IL-20R1, expressed alone on transfected cells (human, UniProt Q9UHF4 30-553)
T4 sequence: T2 sequence 1

B1: human IL-24-AP fusion protein (ligand, UniProt Q13007 52-206, looked up)
chain: QEFHFGPCQVKGVVPQKLWEAFWAVKDTMQAQDNITSARLLQQEVLQNVSDAESCYLVHTLLEFYLKTVFKNYHNRTVEVRTLKSFSTLANNFVLIVSQLQPSQENEMFSIRDSAHRRFLLFRRAFKQLDVEAALTKALGEVDILLTWMQKFYKL
notes: Used as conditioned medium; also called Mob-5-alkaline phosphatase fusion protein; not shown: secreted human placental alkaline phosphatase (AP)
B2: human IL-20R2, expressed alone on transfected cells (receptor, UniProt Q6UXL0 30-311, looked up)
chain: T1 sequence 2
notes: whole, on cells

Columns and labels:
[1] = biological target: T1, IL-22R1/IL-20R2 heterodimeric receptor …; assay: in situ cell surface AP staining of transfected Cos cells
Excerpt: (§1) FIG. 3C illustrates cell surface staining assay for the IL-24 receptor binding. Cos-E5 cells transfected with either the IL-20R1, IL-22R1 and IL20R2 expression vector alone or in pairs were stained for the cell surface-bound IL-24-AP activity and viewed under a light microscope (20× magnification) without phase contrast.
(§2) Based on published data and database searches of GenBank (NCBI), only three R1 and two R2 types of the IL-10 family of receptor subunits can be identified. The three R1 subunits are IL-10R1, IL-20R1 and IL-22R1, whereas the two R2 subunits are IL-20R2 and IL-1OR2, the latter of which is also the second receptor subunit for IL-22. Thus, the IL-24 receptor could be a heterodimer of a combination of the known R1 and R2 receptors. […] The quantitative cell surface binding assays were carried out with Cos cells after transfecting plasmids over-expressing IL-10R2, IL-20R1, IL-22R1 and IL-20R2 individually or in all four R1/R2 combinations (FIG. 3B). […] Using AP staining assays, the quantitative IL-24-AP binding data was confirmed (FIG. 3C). Specific cell surface staining was detected with IL-24-AP when Cos cells were transiently transfected with […] (FIG. 3C).

[2] = biological target: T2, IL-20 receptor (IL-20R1/IL-20R2) …; assay: as above
Excerpt: as §1, §2

[3] = biological target: T3, human IL-22R1, expressed alone on …; assay: quantitative cell surface AP binding assay on transfected Cos cells
[4] = biological target: T4, human IL-20R1, expressed alone on …; assay: as above
[5] = biological target: T5, secreted human placental alkaline phosphatase (AP) (human, UniProt P05187 23-511); assay: as above
T5 construct: Control probe, used as conditioned medium; also called AP control
T5 sequence (P05187 23-511): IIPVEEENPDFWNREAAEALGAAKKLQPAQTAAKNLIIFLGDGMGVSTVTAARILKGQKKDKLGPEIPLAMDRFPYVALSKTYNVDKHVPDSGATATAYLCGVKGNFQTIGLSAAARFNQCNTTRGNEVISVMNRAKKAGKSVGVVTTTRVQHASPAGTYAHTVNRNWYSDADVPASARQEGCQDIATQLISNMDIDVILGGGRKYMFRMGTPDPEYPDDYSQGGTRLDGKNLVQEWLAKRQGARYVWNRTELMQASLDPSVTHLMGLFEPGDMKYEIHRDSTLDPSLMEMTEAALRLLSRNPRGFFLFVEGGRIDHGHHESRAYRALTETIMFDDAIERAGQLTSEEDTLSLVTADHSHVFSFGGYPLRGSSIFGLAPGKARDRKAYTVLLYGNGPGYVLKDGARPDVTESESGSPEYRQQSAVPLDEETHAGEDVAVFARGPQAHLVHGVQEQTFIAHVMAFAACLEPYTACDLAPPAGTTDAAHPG

Row | Binder | binding result [1] | binding result [2] | binding result [3] | binding result [4] | binding result [5]
1 | B1 | binds | binds | no binding | no binding | 
2 | B2 |  |  |  |  | no binding
